# Laboratory results: paper PMC10583602
# Columns and labels:
# [1] = molecular target: TnsC with the apical loop E69-D75 deleted (Vibrio cholerae); assay: SEC
# [2] = molecular target: Vibrio cholerae TnsC (VchTnsC), full length, tag cleaved (Vibrio cholerae); assay: SEC
# [3] = molecular target: Vibrio cholerae TnsC (VchTnsC), full length, tag cleaved (Vibrio cholerae); assay: cryo-EM structure
# [4] = molecular target: TnsC(ΔA106–A113) (Vibrio cholerae); assay: SEC
substance,measurement,setting,value
TnsC with the apical loop E69-D75 deleted (natural protein),stoichiometry N,[1],7
"Vibrio cholerae TnsC (VchTnsC), full length, tag cleaved (natural protein)",stoichiometry N,[2],7
same,stoichiometry N,[3],7
TnsC(ΔA106–A113) (natural protein),stoichiometry N,[4],7
